Results taken from patent publication US20240100162A1 (published 2024).

Experiments:
Assay in all cases: killing
[1] = target: T1, MAGE-B2 peptide, E7K peptide on HLA-A*02:01 (human)
T1 peptide: GVYDGEKHSV

[2] = target: T2, MAGE-B2 peptide, G5S peptide on HLA-A*02:01 (human)
T2 peptide: GVYDSEEHSV

[3] = target: T3, MAGE-B2 peptide, V10T peptide on HLA-A*02:01 (human)
T3 peptide: GVYDGEEHST

[4] = target: T4, MAGE-B2 peptide, D4P peptide on HLA-A*02:01 (human)
T4 peptide: GVYPGEEHSV

[5] = target: T5, MAGE-B2 peptide, G1P peptide on HLA-A*02:01 (human)
T5 peptide: PVYDGEEHSV

[6] = target: T6, MAGE-B2 peptide, Y3W peptide on HLA-A*02:01 (human)
T6 peptide: GVWDGEEHSV

[7] = target: T7, MAGE-B2 peptide, E7P peptide on HLA-A*02:01 (human)
T7 peptide: GVYDGEPHSV

[8] = target: T8, MAGE-B2 peptide, G5M peptide on HLA-A*02:01 (human)
T8 peptide: GVYDMEEHSV

[9] = target: T9, MAGE-B2 peptide, G1M peptide on HLA-A*02:01 (human)
T9 peptide: MVYDGEEHSV

[10] = target: T10, MAGE-B2 peptide, G1A peptide on HLA-A*02:01 (human)
T10 peptide: AVYDGEEHSV

[11] = target: T11, MAGE-B2 peptide, G1S peptide on HLA-A*02:01 (human)
T11 peptide: SVYDGEEHSV

[12] = target: T12, MAGE-B2 peptide, G1C peptide on HLA-A*02:01 (human)
T12 peptide: CVYDGEEHSV

[13] = target: T13, MAGE-B2 peptide, E7W peptide on HLA-A*02:01 (human)
T13 peptide: GVYDGEWHSV

[14] = target: T14, MAGE-B2 peptide, H8D peptide on HLA-A*02:01 (human)
T14 peptide: GVYDGEEDSV

[15] = target: T15, MAGE-B2 peptide, E6M peptide on HLA-A*02:01 (human)
T15 peptide: GVYDGMEHSV

[16] = target: T16, MAGE-B2 peptide, H8G peptide on HLA-A*02:01 (human)
T16 peptide: GVYDGEEGSV

[17] = target: T17, MAGE-B2 peptide, E7S peptide on HLA-A*02:01 (human)
T17 peptide: GVYDGESHSV

[18] = target: T18, MAGE-B2 peptide, H8E peptide on HLA-A*02:01 (human)
T18 peptide: GVYDGEEESV

[19] = target: T19, MAGE-B2 peptide, H8M peptide on HLA-A*02:01 (human)
T19 peptide: GVYDGEEMSV

[20] = target: T20, MAGE-B2 peptide, S9F peptide on HLA-A*02:01 (human)
T20 peptide: GVYDGEEHFV

[21] = target: T21, MAGE-B2 peptide, S9L peptide on HLA-A*02:01 (human)
T21 peptide: GVYDGEEHLV

[22] = target: T22, MAGE-B2 peptide, S9M peptide on HLA-A*02:01 (human)
T22 peptide: GVYDGEEHMV

[23] = target: T23, MAGE-B2 peptide, E7I peptide on HLA-A*02:01 (human)
T23 peptide: GVYDGEIHSV

[24] = target: T24, MAGE-B2 peptide, H8L peptide on HLA-A*02:01 (human)
T24 peptide: GVYDGEELSV

[25] = target: T25, MAGE-B2 peptide, E7A peptide on HLA-A*02:01 (human)
T25 peptide: GVYDGEAHSV

[26] = target: T26, MAGE-B2 peptide, H8Q peptide on HLA-A*02:01 (human)
T26 peptide: GVYDGEEQSV

[27] = target: T27, MAGE-B2 peptide, H8R peptide on HLA-A*02:01 (human)
T27 peptide: GVYDGEERSV

[28] = target: T28, MAGE-B2 peptide, S9H peptide on HLA-A*02:01 (human)
T28 peptide: GVYDGEEHHV

[29] = target: T29, MAGE-B2 peptide, H8P peptide on HLA-A*02:01 (human)
T29 peptide: GVYDGEEPSV

[30] = target: T30, MAGE-B2 peptide, H8I peptide on HLA-A*02:01 (human)
T30 peptide: GVYDGEEISV

[31] = target: T31, MAGE-B2 peptide, S9K peptide on HLA-A*02:01 (human)
T31 peptide: GVYDGEEHKV

[32] = target: T32, MAGE-B2 peptide, S9Y peptide on HLA-A*02:01 (human)
T32 peptide: GVYDGEEHYV

[33] = target: T33, MAGE-B2 peptide, E6T peptide on HLA-A*02:01 (human)
T33 peptide: GVYDGTEHSV

[34] = target: T34, MAGE-B2 peptide, E7F peptide on HLA-A*02:01 (human)
T34 peptide: GVYDGEFHSV

[35] = target: T35, MAGE-B2 peptide, H8A peptide on HLA-A*02:01 (human)
T35 peptide: GVYDGEEASV

[36] = target: T36, MAGE-B2 peptide, H8C peptide on HLA-A*02:01 (human)
T36 peptide: GVYDGEECSV

[37] = target: T37, MAGE-A4 peptide on HLA-A*02:01 (human)
T37 peptide: GVYDGREHTV

[38] = target: T38, MAGE-B2 peptide, H8T peptide on HLA-A*02:01 (human)
T38 peptide: GVYDGEETSV

[39] = target: T39, MAGE-B2 peptide, H8K peptide on HLA-A*02:01 (human)
T39 peptide: GVYDGEEKSV

[40] = target: T40, MAGE-B2 peptide, E6S peptide on HLA-A*02:01 (human)
T40 peptide: GVYDGSEHSV

[41] = target: T41, MAGE-B2 peptide, H8S peptide on HLA-A*02:01 (human)
T41 peptide: GVYDGEESSV

B1: TCR1 (TCR, V domains shown)
Valpha: KQEVTQIPAALSVPEGENLVLNCSFTDSAIYNLQWFRQDPGKGLTSLLLIQSSQREQTSGRLNASLDKSSGRSTLYIAASQPGDSATYLCAAMKTSYDKVIFGPGTSLSVIP
Vbeta: GEEVAQTPKHLVRGEGQKAKLYCAPIKGHSYVFWYQQVLKNEFKFLISFQNENVFDETGMPKERFSAKCLPNSPCSLEIQATKLEDSAVYFCASSQGQGGYGYTFGSGTRLTVV
binding result [1]: recognises | binding result [2]: recognises | binding result [3]: recognises | binding result [4]: recognises | binding result [5]: recognises | binding result [6]: recognises | binding result [7]: recognises | binding result [8]: recognises | binding result [9]: recognises | binding result [10]: recognises | binding result [11]: recognises | binding result [12]: recognises

B2: TCR2 (TCR, V domains shown)
Valpha: QKEVEQNSGPLSVPEGAIASLNCTYSDRGSQSFFWYRQYSGKSPELIMSIYSNGDKEDGRFTAQLNKASQYVSLLIRDSQPSDSATYLCAVNIPFSNSGGYQKVTFGTGTKLQVIP
Vbeta: NAGVTQTPKFRVLKTGQSMTLLCAQDMNHEYMYWYRQDPGMGLRLIHYSVGEGTTAKGEVPDGYNVSRLKKQNFLLGLESAAPSQTSVYFCASRHPGQYNQPQHFGDGTRLSIL
binding result [13]: recognises | binding result [14]: recognises | binding result [15]: recognises | binding result [16]: recognises | binding result [17]: recognises | binding result [18]: recognises | binding result [19]: recognises | binding result [20]: recognises | binding result [21]: recognises | binding result [22]: recognises | binding result [4]: recognises | binding result [23]: recognises | binding result [24]: recognises | binding result [25]: recognises | binding result [26]: recognises | binding result [6]: recognises | binding result [27]: recognises | binding result [28]: recognises | binding result [29]: recognises | binding result [30]: recognises | binding result [31]: recognises | binding result [32]: recognises | binding result [33]: recognises | binding result [34]: recognises | binding result [35]: recognises | binding result [36]: recognises | binding result [37]: no recognition | binding result [38]: recognises | binding result [10]: recognises | binding result [39]: recognises | binding result [40]: recognises | binding result [41]: recognises

B3: TCR3 (TCR, V domains shown)
Valpha: AQKVTQAQTEISVVEKEDVTLDCVYETRDTTYYLFWYKQPPSGELVFLIRRNSFDEQNEISGRYSWNFQKSTSSFNFTITASQVVDSAVYFCALSVLRMDSSYKLIFGSGTRLLVRP
Vbeta: NAGVTQTPKFRVLKTGQSMTLLCAQDMNHEYMYWYRQDPGMGLRLIHYSVGEGTTAKGEVPDGYNVSRLKKQNFLLGLESAAPSQTSVYFCASSLQGAGQPQHFGDGTRLSIL
binding result [13]: recognises | binding result [14]: recognises | binding result [1]: recognises | binding result [2]: recognises | binding result [15]: recognises | binding result [16]: recognises | binding result [17]: recognises | binding result [18]: recognises | binding result [19]: recognises | binding result [20]: recognises | binding result [21]: recognises | binding result [22]: recognises | binding result [23]: recognises | binding result [24]: recognises | binding result [25]: recognises | binding result [26]: recognises | binding result [27]: recognises | binding result [7]: recognises | binding result [28]: recognises | binding result [29]: recognises | binding result [30]: recognises | binding result [31]: recognises | binding result [32]: recognises | binding result [33]: recognises | binding result [34]: recognises | binding result [35]: recognises | binding result [36]: recognises | binding result [37]: recognises | binding result [38]: recognises | binding result [39]: recognises | binding result [40]: recognises | binding result [41]: recognises
